T1: Prm1 ZF domain (Pichia pastoris (Komagataella pastoris)) (UniProt C4R754)
T1 sequence: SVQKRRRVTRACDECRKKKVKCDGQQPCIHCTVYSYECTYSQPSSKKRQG

T2: Mit1 ZF domain (Pichia pastoris (Komagataella pastoris)) (UniProt C4R5Q1)
T2 sequence: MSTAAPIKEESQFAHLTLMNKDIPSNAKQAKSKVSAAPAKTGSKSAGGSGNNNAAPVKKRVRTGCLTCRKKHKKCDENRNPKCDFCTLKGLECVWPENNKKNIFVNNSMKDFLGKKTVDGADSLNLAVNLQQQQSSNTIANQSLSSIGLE

T3: Mit1 ZF domain (Pichia pastoris (Komagataella pastoris), UniProt C4R5Q1 1-150)
T3 sequence: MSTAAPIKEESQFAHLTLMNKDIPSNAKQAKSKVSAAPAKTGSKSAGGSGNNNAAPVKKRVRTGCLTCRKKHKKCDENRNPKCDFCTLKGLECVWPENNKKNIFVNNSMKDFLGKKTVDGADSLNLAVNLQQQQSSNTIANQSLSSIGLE

T4: Prm1 ZF domain (Pichia pastoris (Komagataella pastoris), UniProt C4R754 41-90)
T4 chain: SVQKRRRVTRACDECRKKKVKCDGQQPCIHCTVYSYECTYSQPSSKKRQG


Legend:
[1] = target: T1, Prm1 ZF domain (Pichia pastoris (Komagataella pastoris)); assay: EMSA; conditions: EMSA: 50 mM Tris-HCl pH 8.0, 50 mM NaCl, 1 mM DTT, 0.05% NP-40, 50 ug/ml poly[d(I-C)], 5% glycerol, 30 min at 4 C; about 30 nM probe, 0-1 uM protein. …
[2] = target: T2, Mit1 ZF domain (Pichia pastoris (Komagataella pastoris)); assay: EMSA; conditions: EMSA: 50 mM Tris-HCl pH 8.0, 50 mM NaCl, 1 mM DTT, 0.05% NP-40, 50 ug/ml poly[d(I-C)], 5% glycerol, 30 min at 4 C; about 30 nM probe, 0-1 uM protein. …
Mit1 ZF domain = target: T3, Mit1 ZF domain; assay: EMSA; EMSA: 50 mM Tris-HCl pH 8.0, 50 mM NaCl, 1 mM DTT, 0.05% NP-40, 50 ug/ml poly[d(I-C)], 5% glycerol, 30 min at 4 C; about 30 nM probe, 0-1 uM protein. Footprinting: 350 ng probe in 40 ul, 30 min at 25 C; conditions: protein: recombinant; tags: His6; label: Cy5
Prm1 ZF domain = target: T4, Prm1 ZF domain; assay: as above; conditions: protein: recombinant; tags: His6; label: Cy5

| Molecule | binding [1] | binding result (Mit1 ZF domain) | other results |
| --- | --- | --- | --- |
| ACAGAATCTGGAGGTGTAAACACCGTCATTCCCTAATCTAAGTTTCTGTCCAGCCGTTTAGAAAGTTCCTCTTCGTCAATAAAGTTTAACTTTGAACGTGAGAGTTGAGCTAATCGGAAATACTCCCGAGAGCACACCCGAGCAGTGAAGCGGGGCATCATCAAAAGAATTAAGGGGTGCTGGGTGCGGATTGCGCGCAGTAGCTGGCATCAATGCCAAACGTAGAACTCATACATTCTCCTATCAGAATCATACGACATCGAGAGATACACCAGCCAGCACCACTTGAACACTCCCAAT (double strand) [PMIT1-A] | binds |  |  |
| CAATTCCTTCTATTAGGCTACTAACACCATGACTTTATTAGCCTGTCTATCCTGGCCCCCCTGGCGAGGTTCATGTTTGTTTATTTCCGAATGCAACAAGCTCCGCATTACACCCGAACATCACTCCAGATGAGGGCTTTCTGAGTGTGGGGTCAAATAGTTTCATGTTCCCCAAATGGCCCAAAACTGACAGTTTAAACGCTGTCTTG (double strand) [PAOX1 W2] | no binding |  | binding [2]: binds |
| GATAGCACTCTGGATTGATCAGAAACTTCATATCCGGAGACAGATACTTGTCTGTCTTGCATATGGGGCAATATTCTTCAGTATCCATCCGATGATTACGATTAGTATTAGGTTGATGAATAATCCATAATGGTCCCCTGATGGAATATGCTCGCGAAGA (double strand) [PPRM1-A] | binds |  |  |
| ATTTTTGAGCATTCGTCAATCAATACCAAACAAGACAAACGGTATGCCGACTTTTGGAAGTTTCTTTTTGACCAACTGGCCGTTAGCATTTCAACGAACCAAACTTAGTTCATCTTGGATGAGATCACGCTTTTGTCATATTAGGTTCCAAGACAGCGTTTAAACTGT (double strand) [PAOX1 W3] | binds |  | binding [2]: binds |
| TTGCTGTCAAGTAGGGGTTAGAACAGTTAAATTTTGATCATGAACGTTAGGCTATCAGCAGTATTCCCACCAGAATCTTGGAAGCATACAATGTGGAGACAATGCATAATCATCCAAAAAGCGGGTGTTTCCCCATTTGCGTTTCGGCACAGGTGCACCGGGGTTCAGAAGCGATAGAGAGACTGCGCTAAGCATTAATGAGATTATTTTTGAGCATTCGTCAAT (double strand) [PAOX1 W4] | binds |  | binding [2]: no binding |
| GTTCTTCCCGTTCCGCTCTATCCGATAAGAGGTTGGCTTCCGAGAAGGTTGGTAGTTGGAATGACGTACAAAATGTACAACAAAGCAGATGTTGTTTAGCGCGATCGCCCCAACCCCTCTTGTTGTTAGACAGTCTTATGCATATTTCGTAGACCCGGGACTGTACATTCGTCCGTCCTCAACCATTGGTCATTTGGTAC (double strand) [PMIT1-D] | binds |  |  |
| W2 delta B (dsDNA) DNA 1: CAATTCCTTCTATTAGGCTACTAACACCATGACTTCTGGCCCCCCTGGCGAGGTTCATGTTTGTTTATTTCCGAATGCAACAAGCTCCGCATTACACCCGAACATCACTCCAGATGAGGGCTTTCTGAGTGTGGGGTCAAATAGTTTCATGTTCCCCAAATGGCCCAAAACTGACAGTTTAAACGCTGTCTTG DNA 2: CAAGACAGCGTTTAAACTGTCAGTTTTGGGCCATTTGGGGAACATGAAACTATTTGACCCCACACTCAGAAAGCCCTCATCTGGAGTGATGTTCGGGTGTAATGCGGAGCTTGTTGCATTCGGAAATAAACAAACATGAACCTCGCCAGGGGGGCCAGAAGTCATGGTGTTAGTAGCCTAATAGAAGGAATTG |  | binds |  |
| W3 delta D (dsDNA) DNA 1: ACAGTTTAAACGCTGTCTTGGAACCTAATATGACAAAAGCGTGATCTCATCCAAGATGAACTAAGTTTGGTTCGTTGAAATGCTAACGGCCAGTTGGTCAAAAAGAAACTTCCGAATGCTCAAAAAT DNA 2: ATTTTTGAGCATTCGGAAGTTTCTTTTTGACCAACTGGCCGTTAGCATTTCAACGAACCAAACTTAGTTCATCTTGGATGAGATCACGCTTTTGTCATATTAGGTTCCAAGACAGCGTTTAAACTGT |  | binds | binding result (Prm1 ZF domain): no binding |
| W2 delta A delta B (dsDNA) DNA 1: CAATTCATGACTTCTGGCCCCCCTGGCGAGGTTCATGTTTGTTTATTTCCGAATGCAACAAGCTCCGCATTACACCCGAACATCACTCCAGATGAGGGCTTTCTGAGTGTGGGGTCAAATAGTTTCATGTTCCCCAAATGGCCCAAAACTGACAGTTTAAACGCTGTCTTG DNA 2: CAAGACAGCGTTTAAACTGTCAGTTTTGGGCCATTTGGGGAACATGAAACTATTTGACCCCACACTCAGAAAGCCCTCATCTGGAGTGATGTTCGGGTGTAATGCGGAGCTTGTTGCATTCGGAAATAAACAAACATGAACCTCGCCAGGGGGGCCAGAAGTCATGAATTG |  | no binding |  |
| W2 delta A (dsDNA) DNA 1: CAATTCATGACTTTATTAGCCTGTCTATCCTGGCCCCCCTGGCGAGGTTCATGTTTGTTTATTTCCGAATGCAACAAGCTCCGCATTACACCCGAACATCACTCCAGATGAGGGCTTTCTGAGTGTGGGGTCAAATAGTTTCATGTTCCCCAAATGGCCCAAAACTGACAGTTTAAACGCTGTCTTG DNA 2: CAAGACAGCGTTTAAACTGTCAGTTTTGGGCCATTTGGGGAACATGAAACTATTTGACCCCACACTCAGAAAGCCCTCATCTGGAGTGATGTTCGGGTGTAATGCGGAGCTTGTTGCATTCGGAAATAAACAAACATGAACCTCGCCAGGGGGGCCAGGATAGACAGGCTAATAAAGTCATGAATTG |  | binds |  |
| W3 delta B delta C (dsDNA) DNA 1: ACAGTTTAAACGCTGTCTTGGAACCTAATATGACAAAAGCGTGACAAGATGAACTAAGTTTGGTTCGTTGAAATGGCCAGTTGGTCAAAAAGAAACTTCCAAAAGTCGGCATACCGTTTGTCTTGTTTGGTATTGATTGACGAATGCTCAAAAAT DNA 2: ATTTTTGAGCATTCGTCAATCAATACCAAACAAGACAAACGGTATGCCGACTTTTGGAAGTTTCTTTTTGACCAACTGGCCATTTCAACGAACCAAACTTAGTTCATCTTGTCACGCTTTTGTCATATTAGGTTCCAAGACAGCGTTTAAACTGT |  | binds |  |

Source: publication PMC4813576, “Mit1 Transcription Factor Mediates Methanol Signaling and Regulates the Alcohol Oxidase 1 (AOX1) Promoter in Pichia pastoris*”
